In IntAct's records for PubMed 20551905:

B1: SUN domain-containing protein 2 (Homo sapiens), Q9UH99 (parent)
chain: MSRRSQRLTRYSQGDDDGSSSSGGSSVAGSQSTLFKDSPLRTLKRKSSNMKRLSPAPQLGPSSDAHTSYYSESLVHESWFPPRSSLEELHGDANWGEDLRVRRRRGTGGSESSRASGLVGRKATEDFLGSSSGYSSEDDYVGYSDVDQQSSSSRLRSAVSRAGSLLWMVATSPGRLFRLLYWWAGTTWYRLTTAASLLDVFVLTRRFSSLKTFLWFLLPLLLLTCLTYGAWYFYPYGLQTFHPALVSWWAAKDSRRPDEGWEARDSSPHFQAEQRVMSRVHSLERRLEALAAEFSSNWQKEAMRLERLELRQGAPGQGGGGGLSHEDTLALLEGLVSRREAALKEDFRRETAARIQEELSALRAEHQQDSEDLFKKIVRASQESEARIQQLKSEWQSMTQESFQESSVKELRRLEDQLAGLQQELAALALKQSSVAEEVGLLPQQIQAVRDDVESQFPAWISQFLARGGGGRVGLLQREEMQAQLRELESKILTHVAEMQGKSAREAAASLSLTLQKEGVIGVTEEQVHHIVKQALQRYSEDRIGLADYALESGGASVISTRCSETYETKTALLSLFGIPLWYHSQSPRVILQPDVHPGNCWAFQGPQGFAVVRLSARIRPTAVTLEHVPKALSPNSTISSAPKDFAIFGFDEDLQQEGTLLGKFTYDQDGEPIQTFHFQAPTMATYQVVELRILTNWGHPEYTCIYRFRVHGEPAH

Variants of: B1
Settings: with copb_human COPB1, P53618
Chain of copb_human COPB1, P53618 (P53618 whole entry): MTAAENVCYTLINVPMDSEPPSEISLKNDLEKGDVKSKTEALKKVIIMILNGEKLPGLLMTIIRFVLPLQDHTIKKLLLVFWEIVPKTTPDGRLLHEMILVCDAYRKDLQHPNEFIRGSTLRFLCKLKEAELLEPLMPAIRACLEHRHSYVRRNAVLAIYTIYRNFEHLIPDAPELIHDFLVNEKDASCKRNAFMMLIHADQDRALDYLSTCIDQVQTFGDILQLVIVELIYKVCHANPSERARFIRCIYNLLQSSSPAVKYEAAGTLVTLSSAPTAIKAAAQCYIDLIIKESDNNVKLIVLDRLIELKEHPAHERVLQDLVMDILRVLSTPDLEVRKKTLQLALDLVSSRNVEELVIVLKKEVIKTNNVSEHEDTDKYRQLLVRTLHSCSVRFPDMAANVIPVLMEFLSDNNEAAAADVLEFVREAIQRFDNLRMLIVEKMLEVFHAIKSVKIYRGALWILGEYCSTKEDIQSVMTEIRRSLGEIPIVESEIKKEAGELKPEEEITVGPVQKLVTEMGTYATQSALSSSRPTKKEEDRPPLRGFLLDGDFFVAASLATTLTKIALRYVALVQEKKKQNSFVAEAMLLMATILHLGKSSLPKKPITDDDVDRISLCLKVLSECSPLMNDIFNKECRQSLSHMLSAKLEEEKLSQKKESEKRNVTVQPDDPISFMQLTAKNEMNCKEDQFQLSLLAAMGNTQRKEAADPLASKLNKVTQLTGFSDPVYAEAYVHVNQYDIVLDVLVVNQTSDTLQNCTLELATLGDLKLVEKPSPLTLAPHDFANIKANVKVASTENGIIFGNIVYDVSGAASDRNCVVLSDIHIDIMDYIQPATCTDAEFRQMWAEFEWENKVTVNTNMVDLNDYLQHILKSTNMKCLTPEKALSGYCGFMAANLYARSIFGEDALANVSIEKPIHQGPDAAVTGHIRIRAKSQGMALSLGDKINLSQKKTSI

Effect of a mutation on the interaction, disrupting interaction:
R52A
R102A;R103A;R104A;R105A
R41A
R45A
K51A
K46A
K44A
